# T1: TGF-β receptor I-K coil fusion protein (kinase domain)
# T1 chain: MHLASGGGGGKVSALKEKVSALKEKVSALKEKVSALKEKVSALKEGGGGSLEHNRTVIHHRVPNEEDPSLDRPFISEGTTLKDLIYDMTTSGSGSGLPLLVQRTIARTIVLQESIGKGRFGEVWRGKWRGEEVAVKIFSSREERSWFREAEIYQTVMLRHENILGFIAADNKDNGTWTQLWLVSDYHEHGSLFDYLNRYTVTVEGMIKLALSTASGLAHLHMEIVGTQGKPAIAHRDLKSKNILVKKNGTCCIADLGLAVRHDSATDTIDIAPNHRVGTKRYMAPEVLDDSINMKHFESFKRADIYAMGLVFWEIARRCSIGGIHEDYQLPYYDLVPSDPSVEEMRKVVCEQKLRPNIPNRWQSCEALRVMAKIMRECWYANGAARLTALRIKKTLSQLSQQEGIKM
# Biological target: T1, TGF-β receptor I-K coil fusion protein …
protein,measurement,value
TGF-β receptor II-E coil fusion protein (kinase domain) (protein) MHLASGGGGGEVSALEKEVSALEKEVSALEKEVSALEKEVSALEKGGGGSLERVNRQQKLSSTWETGKTRKLMEFSEHCAIILEDDRSDISSTCANNINHNTELLPIELDTLVGKGRFAEVYKAKLKQNTSEQFETVAVKIFPYEEYASWKTEKDIFSDINLKHENILQFLTAEERKTELGKQYWLITAFHAKGNLQEYLTRHVISWEDLRKLGSSLARGIAHLHSDHTPCGRPKMPIVHRDLKSSNILVKNDLTCCLCDFGLSLRLDPTLSVDDLANSGQVGTARYMAPEVLESRMNLENAESFKQTDVYSMALVLWEMTSRCNAVGEVKDYEPPFGSKVREHPCVESMKDNVLRDRGRPEIPSFWLNHQGIQMVCETLTECWDHDPEARLTAQCVAERFSELEHLDRLSGRSCSEEKIPEDGSLNTTK,"autophosphorylation with P33-gamma ATP, SDS-PAGE and phosphorimaging",Lane 4 corresponding to the heterodimer shows the most autophosphorylation

# Reference: patent publication US20070154994
